Patent US8563520B2, “Treatment of ocular disease with inhibitors of alpha2 macroglobulin protein” (McGill University, priority 2005, dated 2013)
Like-named read-outs stand apart in the source and are kept apart here.

Test system: Rat Retina
Procedure: The following experiment was conducted in order to assess changes in gene expression induced in the retina after intraocular injection of α2 macroglobulin protein. 2 μg of α2 macroglobulin protein was intraocularly injected into the right eye of rats (n=3) and the left eye was used as a control. One rat was tested at Day 3, one rat was tested at Day 7 and one rat was tested at Day 14. Retinas were isolated and mRNA was collected. Samples from each of the rats were studied by gene microassays. Retinas were carefully dissected out to insure that only retinal mRNAs were prepared for gene microarray studies. Samples were obtained from control eyes.
Total RNA was isolated from retinal tissue using TRIZOL® (Life Technologies). RNA was then further purified using the RNAEASY® (QIAGEN®). The integrity of the RNA samples was assessed by running aliquots on RNA 6000 Nano LabChip (Agilent) using the 2100 bioanalyzer (Agilent).
Probe synthesis, hybridization and scanning were done according to Affymetrix protocol, as a service at the McGill University and Genome Quebec Innovation Centre. For the experiments shown, Rat U34 Genome Arrays (8,700 genes, Affymetrix) were used. Briefly, RNA samples were first converted to double stranded cDNA (T7-(dT)24 primer (Genset)). Then the cDNAs were purified and used to generate the biotinylated cRNA probes (Bioarray High Yield RNA transcript labeling kit (Enzo diagnostics)). An aliquot of the purified cRNA was analyzed on RNA 6000 Nano LabChip (Agilent) to verify the integrity and size distribution. Immediately after hybridization the chip was placed in the Affymetrix GeneChip Fluidics Station 400 (Affymetrix). In total, 10 low-stringency washes (63 SSPE, 0.01% Tween-20, 0.005% Antifoam) and 4 high-stringency washes (100 mM MES, 0.1 M NaCl, 0.01% Tween-20, 50 C) were performed (all reagents from Sigma). The array was then incubated with SAPE® (streptavidin/phycoerythrin stain, Molecular Probes), followed by 10 low stringency washes. The array was incubated with biotinylated anti-streptavidin antibody (Vector Laboratories) and washed again with 15 low stringency washes. Specifically bound probe was detected by placing the array in the Agilent GeneArray scanner 2500 (Affymetrix). The scanned images were analyzed using the Microarray Analysis Suite version 5.0 (Affymetrix).
The fold change was analyzed by […] data for the control eye from the data on the eye injected with α2 macroglobulin. A fold change of 2 or greater indicates upregulation. A fold of 0.5 to 2 indicates no change. A fold change of 0.5 or less indicates downregulation.

[1] = gene complexin 2 (1368584_a_at)
[2] = gene crystallin, beta A2 (1388385_at)
[3] = gene crystallin, beta B1 (1369985_at)
[4] = gene crystallin, beta B2 (1367684_at)
[5] = gene crystallin, beta B3 (1367990_at)
[6] = gene crystallin, gamma N (predicted) (1384241_at)
[7] = gene death effector domain-containing (1369003_at)
[8] = gene fibrinogen-like 2 (1392894_at)
[9] = gene forkhead box E3 (1370797_at)
[10] = gene glycoprotein 2 (zymogen granule membrane) (1386933_at)
[11] = gene glycoprotein (transmembrane) nmb (1368187_at)
[12] = gene guanylate nucleotide binding protein 2 (1368332_at)
[13] = gene interferon induced transmembrane protein 1 (predicted) (1372013_at)
[14] = gene lens intrinsic membrane protein 2 (1368493_at)
[15] = gene membrane metallo endopeptidase (1370072_at)
[16] = gene membrane-spanning 4-domains, subfamily A, member 6B (1390510_at)
[17] = gene procollagen, type III, alpha 1 (1370959_at)
[18] = gene procollagen, type IV, alpha 1 (1372439_at)
[19] = gene procollagen, type IV, alpha 1 (1373245_at)
[20] = gene serine (or cysteine) peptidase inhibitor, clade G, member 1 (1372254_at)
[21] = gene similar to Beta crystallin S (Gamma crystallin S) (1388435_at)
[22] = gene similar to FRBZ1 protein (FRBZ1) (predicted) (1398217_at)
[23] = gene similar to Phakinin (Beaded filament structural protein 2) (1383812_at)
[24] = gene similar to RCK (predicted) (1389868_at)
[25] = gene similar to RIKEN cDNA 1300010M03 (predicted) (1376087_at)
[26] = gene similar to RIKEN cDNA 1500009M05 (predicted) (1382193_at)
[27] = gene similar to RIKEN cDNA 4930555G01 (predicted) (1391152_at)
[28] = gene similar to RNA-binding protein Musashi2-S (predicted) (1390813_at)
[29] = gene similar to keratin complex 2, basic, gene 6a (1373349_at)
[30] = gene similar to mKIAA1450 protein (predicted) (1391315_at)
[31] = gene similar to serine (or cysteine) proteinase inhibitor (1388746_at)
[32] = gene solute carrier family 6 (neurotransmitter transporter, GABA) (1369715_at)
[33] = gene solute carrier family 6 (neurotransmitter transporter, taurine) (1368778_at)
[34] = gene spectrin alpha 1 (1386212_at)

B1: α2m: α2 macroglobulin protein injected intraocularly into normal rat eyes (protein, UniProt P06238 28-1472, looked up)
Alpha-2-macroglobulin: SAPQKPIYMVMVPSLLHAGTPEKACFLFSHLNETVAVRVSLESVRGNQSLFTDLVVDKDLFHCTSFTVPQSSSDEVMFFTVQVKGATHEFRRRSTVLVKKKESLVFAQTDKPIYKPGQTVRFRVVSLDESFHPLNELIPLLYIQDPKNNRIAQWQNFNLEGGLKQLSFPLSSEPTQGSYKVVIRTESGRTVEHPFSVEEFVLPKFEVRVTVPETITILEEEMNVSVCGIYTYGKPVPGRVTVNICRKYSNPSNCFGEESVAFCEKLSQQLDGRGCFSQLVKTKSFQLKRQEYEMQLDVHAKIQEEGTGVEETGKGLTKITRTITKLSFVNVDSHFRQGIPFVGQVLLVDGRGTPIPYETIFIGADEANLYINTTTDKHGLARFSINTDDIMGTSLTVRAKYKDSNACYGFRWLTEENVEAWHTAYAVFSPSRSFLHLESLPDKLRCDQTLEVQAHYILNGEAMQELKELVFYYLMMAKGGIVRAGTHVLPLKQGQMRGHFSILISMETDLAPVARLVLYAILPNGEVVGDTAKYEIENCLANKVDLVFRPNSGLPATRALLSVMASPQSLCGLRAVDQSVLLMKPETELSASLIYDLLPVKDLTGFPQGADQREEDTNGCVKQNDTYINGILYSPVQNTNEEDMYGFLKDMGLKVFTNSNIRKPKVCERLRDNKGIPAAYHLVSQSHMDAFLESSESPTETRRSYFPETWIWDLVVVDSAGVAEVEVTVPDTITEWKAGAFCLSNDTGLGLSPVVQFQAFQPFFVELTMPYSVIRGEAFTLKATVLNYLPTCIRVAVQLEASPDFLAAPEEKEQRSHCICMNQRHTASWAVIPKSLGNVNFTVSAEALNSKELCGNEVPVVPEQGKKDTIIKSLLVEPEGLENEVTFNSLLCPMGAEVSELIALKLPSDVVEESARASVTVLGDILGSAMQNTQDLLKMPYGCGEQNMVLFAPNIYVLDYLNETQQLTQEIKTKAIAYLNTGYQRQLNYKHRDGSYSTFGDKPGRNHANTWLTAFVLKSFAQARKYIFIDEVHITQALLWLSQQQKDNGCFRSSGSLLNNAMKGGVEDEVTLSAYITIALLEMSLPVTHPVVRNALFCLDTAWKSARGGAGGSHVYTKALLAYAFALAGNQDTKKEILKSLDEEAVKEEDSVHWTRPQKPSVSVALWYQPQAPSAEVEMTAYVLLAYLTTEPAPTQEDLTAAMLIVKWLTKQQNSHGGFSSTQDTVVALHALSKYGSATFTRAKKAAQVTIHSSGTFSTKFQVNNNNQLLLQRVTLPTVPGDYTVKVTGEGCVYLQTSLKYSVLPREEEFPFTVVVQTLPGTCEDPKAHTSFQISLNISYTGSRSESNMAIADVKMVSGFIPLKPTVKMLERSVHVSRTEVSNNHVLIYLDKVSNQTVNLSFTVQQDIPIRDLKPAVVKVYDYYEKDEFAVAKYSAPCSTDYGNA
Gene complement factor B (1389470_at)
  Fold Change (α2m vs normal) Day 7: 3.3
[1]
  Fold Change (α2m vs normal) Day 3: 0.5
  Fold Change (α2m vs normal) Day 7: 0.2
[2]
  Fold Change (α2m vs normal) Day 3: 0.5
  Fold Change (α2m vs normal) Day 7: 3.6
  Fold Change (α2m vs normal) Day 14: 2.0
[3]
  Fold Change (α2m vs normal) Day 3: 0.5
  Fold Change (α2m vs normal) Day 7: 3.4
  Fold Change (α2m vs normal) Day 14: 2.0
[4]
  Fold Change (α2m vs normal) Day 3: 0.4
  Fold Change (α2m vs normal) Day 7: 3.7
  Fold Change (α2m vs normal) Day 14: 2.2
[5]
  Fold Change (α2m vs normal) Day 3: 0.4
  Fold Change (α2m vs normal) Day 7: 4.2
  Fold Change (α2m vs normal) Day 14: 2.0
[6]
  Fold Change (α2m vs normal) Day 3: 0.5
  Fold Change (α2m vs normal) Day 7: 3.9
[7]
  Fold Change (α2m vs normal) Day 3: 0.5
  Fold Change (α2m vs normal) Day 7: 0.4
Gene decorin (1370956_at)
  Fold Change (α2m vs normal) Day 3: 3.7
  Fold Change (α2m vs normal) Day 7: 12.6
[8]
  Fold Change (α2m vs normal) Day 3: 2.1
  Fold Change (α2m vs normal) Day 7: 2.1
[9]
  Fold Change (α2m vs normal) Day 3: 0.4
  Fold Change (α2m vs normal) Day 7: 2.9
  Fold Change (α2m vs normal) Day 14: 2.2
[10]
  Fold Change (α2m vs normal) Day 3: 0.5
  Fold Change (α2m vs normal) Day 7: 2.1
[11]
  Fold Change (α2m vs normal) Day 3: 3.9
  Fold Change (α2m vs normal) Day 7: 7.4
[12]
  Fold Change (α2m vs normal) Day 3: 2.2
  Fold Change (α2m vs normal) Day 7: 2.1
[13]
  Fold Change (α2m vs normal) Day 3: 5.8
  Fold Change (α2m vs normal) Day 7: 4.2
[14]
  Fold Change (α2m vs normal) Day 3: 0.5
  Fold Change (α2m vs normal) Day 7: 2.5
Gene lumican (1367749_at)
  Fold Change (α2m vs normal) Day 3: 6.1
  Fold Change (α2m vs normal) Day 7: 4.1
  Fold Change (α2m vs normal) Day 14: 0.4
Gene lysozyme (1370154_at)
  Fold Change (α2m vs normal) Day 3: 7.8
  Fold Change (α2m vs normal) Day 7: 2.8
[15]
  Fold Change (α2m vs normal) Day 3: 0.5
  Fold Change (α2m vs normal) Day 7: 5.3
  Fold Change (α2m vs normal) Day 14: 2.2
[16]
  Fold Change (α2m vs normal) Day 3: 5.1
  Fold Change (α2m vs normal) Day 7: 2.1
[17]
  Fold Change (α2m vs normal) Day 3: 3.7
  Fold Change (α2m vs normal) Day 7: 3.4
[18]
  Fold Change (α2m vs normal) Day 3: 0.3
  Fold Change (α2m vs normal) Day 7: 17.5
  Fold Change (α2m vs normal) Day 14: 2.4
[19]
  Fold Change (α2m vs normal) Day 3: 0.3
  Fold Change (α2m vs normal) Day 7: 13.2
  Fold Change (α2m vs normal) Day 14: 2.3
[20]
  Fold Change (α2m vs normal) Day 3: 3.0
  Fold Change (α2m vs normal) Day 7: 3.3
[21]
  Fold Change (α2m vs normal) Day 3: 0.5
  Fold Change (α2m vs normal) Day 7: 2.8
  Fold Change (α2m vs normal) Day 14: 2.9
[22]
  Fold Change (α2m vs normal) Day 3: 0.5
  Fold Change (α2m vs normal) Day 7: 0.2
[23]
  Fold Change (α2m vs normal) Day 3: 0.4
  Fold Change (α2m vs normal) Day 7: 2.7
[24]
  Fold Change (α2m vs normal) Day 3: 0.5
  Fold Change (α2m vs normal) Day 7: 0.2
[25]
  Fold Change (α2m vs normal) Day 3: 0.5
  Fold Change (α2m vs normal) Day 7: 0.4
[26]
  Fold Change (α2m vs normal) Day 3: 0.4
  Fold Change (α2m vs normal) Day 7: 0.2
[27]
  Fold Change (α2m vs normal) Day 3: 2.0
  Fold Change (α2m vs normal) Day 7: 5.6
[28]
  Fold Change (α2m vs normal) Day 3: 0.5
  Fold Change (α2m vs normal) Day 7: 0.2
[29]
  Fold Change (α2m vs normal) Day 3: 7.3
  Fold Change (α2m vs normal) Day 7: 0.4
[30]
  Fold Change (α2m vs normal) Day 3: 0.5
  Fold Change (α2m vs normal) Day 7: 0.2
[31]
  Fold Change (α2m vs normal) Day 3: 0.4
  Fold Change (α2m vs normal) Day 7: 2.6
[32]
  Fold Change (α2m vs normal) Day 3: 0.5
  Fold Change (α2m vs normal) Day 7: 0.4
[33]
  Fold Change (α2m vs normal) Day 3: 0.5
  Fold Change (α2m vs normal) Day 7: 0.2
  Fold Change (α2m vs normal) Day 14: 2.3
[34]
  Fold Change (α2m vs normal) Day 3: 0.5
  Fold Change (α2m vs normal) Day 7: 2.1
Gene — (1393766_at, AI112375)
  Fold Change (α2m vs normal) Day 3: 0.4
  Fold Change (α2m vs normal) Day 7: 0.3
  Fold Change (α2m vs normal) Day 14: 3.6
Gene — (1394837_at, BF405797)
  Fold Change (α2m vs normal) Day 3: 0.3
  Fold Change (α2m vs normal) Day 7: 0.2
Gene — (1395129_at, BE107340)
  Fold Change (α2m vs normal) Day 3: 0.5
  Fold Change (α2m vs normal) Day 7: 0.3
